The values that follow come from US20130142732, “RECOMBINANT FLUORESCENT NANOPARTICLES” (KOREA UNIVERSITY RESEARCH AND BUSINESS FOUNDATION, published 2013).

The target in series [1] is T1, PDGF-BB (UniProt P01127 P01127:82-190). Put plainly: printed as 5.0 x 1011 mol/L, exponent sign lost; sandwich plate assay with biotin-aptamer capture, PBS, 37 C, linearized Langmuir. Conditions: tags: Sigma-Aldrich; chain copies: 2 (homodimer, inferred); label: Cy3. As to the method: (§1) On the Basis of the linearized form of the Langmur absorption isotherm and the linear curve of FIG. 5C, the dissociation constants (KD) were determined by a PDGF-BB analysis method using each of the DNA-aptamer-conjugated gFFNP, eGFP, and Cy3, and the results are shown in Table 7.

Series [2] has as its target T1, PDGF-BB. As to the kind of experiment: printed as 4.0 x 1011 mol/L, exponent sign lost; sandwich plate assay with biotin-aptamer capture, PBS, 37 C, linearized Langmuir. Conditions: tags: Sigma-Aldrich; chain copies: 2 (homodimer, inferred); label: eGFP. The procedure: as §1

T1 sequence (P01127 82-190, one chain of several): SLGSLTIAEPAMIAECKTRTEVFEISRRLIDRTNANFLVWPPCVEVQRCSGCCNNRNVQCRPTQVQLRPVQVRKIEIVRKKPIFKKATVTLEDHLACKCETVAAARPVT

For orientation: Kd means the free concentration of one partner at which half of the binding sites on the other are occupied at equilibrium, for simple one-to-one binding. Lower therefore signals a tighter complex. In the series with PDGF-BB [1], CACAGGCTACGGCACGTAGAGCATCACCATGATCCTGTGT (ssDNA, 5'-Cy3) [PDGF-BB DNA aptamer Cy3-modified] returned a Kd of 0.05 nM.

In the series with PDGF-BB [2], CACAGGCTACGGCACGTAGAGCATCACCATGATCCTGTGT (ssDNA, 5'-NH2-(CH2)6, SSMCC-coupled to eGFP(S175C)) [PDGF-BB DNA aptamer conjugated to eGFP] registered a Kd of 0.04 nM.
